Molecular target: TGF-β1 (transforming growth factor beta 1) (UniProt P01137 279-390)
Assay: electrochemical aptamer sensor (CV/SWV, signal-off) with OECT readout; 1 mM MgCl2 in aptamer folding; aptamer on Au with MCH backfill; 1x PBS (selectivity test in bare 1x PBS); aptamer folded and MCH backfill in 1x PBS with 1 mM MgCl2; assay pH and temperature not stated
Settings: chain copies: 2; label: 5' methylene blue; 3' thiol on Au electrode; single strand, folded

TGF-β1 (transforming growth factor beta 1), sequence (P01137 279-390): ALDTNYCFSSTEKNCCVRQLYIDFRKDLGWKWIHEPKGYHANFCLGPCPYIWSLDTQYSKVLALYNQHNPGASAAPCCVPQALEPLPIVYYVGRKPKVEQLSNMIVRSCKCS

B1: TGF-β1 aptamer (MB-modified) (XNA)
DNA: CGCTCGGCTTCACGAGATTCGTGTCGTTGTGTCCTGTACCCGCCTTGACCAGTCACTCTAGAGCATCCGGACTG
modifications: partial phosphorothioate, 5' side of some A and C, printed as * : CG*CTCGG*CTTC*ACG*AG*ATT*CGTGT*CGTTGTGT*C*CTGT*A*C*C*CG*C*CTTG*A*C*C*AGT*C*ACT*CT*AG*AGC*AT*C*CGG*A*CTG; 5' amino C6; 3' iSpC3 and thiol C3
binding result: binds

— article PMC10039935, “Organic electrochemical transistors as on-site signal amplifiers for electrochemical aptamer-based sensing”
